One assay relates to MAB01 heavy chain. Kind of assay: Antibody degradation by Pichia-expressed T. reesei proteases (MAB01). Type of assay: biochemical. The protocol: The T. reesei aspartic proteases pep3 (tre121133) and pep7 (tre58669) expressed from Pichia were also tested in vitro, by measuring the degradation of the MAB01 antibody and IGF-1. Degradation of MAB01 and IGF-1 by pep3 and pep7 was analyzed by immunoblotting. The aspartic proteases were produced in Pichia supernatants. Pichia supernatants were diluted to 1× concentration, and then mixed with 50 mM sodium citrate buffer, pH 5.5. MAB01 was added to each reaction so that the final concentration would be 0.05 μg IGF-1 was added to each reaction so that the final concentration would be 0.30 μg μl. Ten microliters of each reaction mixture was then sampled and added to 3 μl of Laemmli sample buffer with β-mercaptoethanol. The samples were heated at 95° C. for 5 minutes before being loaded into a 4-15% PAGE gel (BioRad mini-protean TGX precast gel) along with an all blue precision plus prestained molecular weight marker (BioRad). The PAGE gel was run for 30 minutes at 200V. The proteins in the gel were then electrotransferred into a nitrocellulose filter at 100V for 1 hour. The protein containing nitrocellulose filter was then blocked with 5% milk powder in Tris buffered saline with 0.1% tween (TBST) for 1 hour shaking at room temperature. The blocked membranes were then probed with antibody. The MAB01 containing membranes were probed with an anti-IgG heavy chain antibody AP conjugate (Sigma #A3188) diluted 1:30,000 in TBST. The IGF-1 samples were analyzed using a primary anti-IGF-1 antibody (1:2000 in TBST) and anti-IgG AP conjugated secondary antibody (1:5000 in TBST). All antibody incubations were done for 1 hour at room temperature on a shaker. The membranes were then washed with 3 changes of TBST for 20 minutes each on the shaker. The membranes were developed with the BCIP/NBT alkaline phosphatase substrate (Promega #S3771) for up to 5 minutes.
Pichia supernatants containing Trichoderma reesei gap2 were also studied in vitro. The gap2 containing supernatant and MAB01 antibody were diluted into sodium citrate buffers adjusted to pH 4.0, 4.5, 5.0, and 5.5, and incubated for 20 hours at 37° C. Samples were taken at 0 minutes and after 20 hours. MAB01 heavy chain production was analyzed by immunoblotting using an anti-IgG heavy chain (Sigma #A3188) antibody AP conjugate.
(§1) The Trichoderma reesei subtilisin proteases slp5, slp6, and slp7 were overproduced in Pichia supernatants for investigation of their activity against the antibody rituximab and MAB01 heavy chains (FIG. 25). The rituximan mock supernatant was compared to supernatants containing slp5 and slp6 (FIG. 25 A). The MAB01 mock supernatant was compared to supernatants containing slp7 (FIG. 25B). Rituximab and MAB01 were added to the protease-containing Pichia supernatants and incubated overnight at 37° C. Samples were taken and analyzed by immunoblotting with an anti-heavy chain AP conjugated antibody.

The next assay concerns rituximab heavy chain. Kind of assay: Antibody degradation by Pichia-expressed T. reesei proteases (rituximab). The note with it: overnight 37°C. Type of assay: biochemical. The procedure:
as §1

Setting [1] is: pH 5.5, 37°C, overnight/20 hours.

Consider 4 molecules from patent publication US11180767B2, “Protease deficient filamentous fungal cells and methods of use thereof” (GLYKOS FINLAND OY, priority 2012, dated 2021).

B1: pep7: T. reesei aspartic protease tre58669 expressed from Pichia (protein, listed as Trichoderma reesei)
chain: MTLPVPLREHDLPFLKEKRKLPADDIPSGTYTLPIIHARRPKLASRAIEVQVENRSDVSYYAQLNIGTPPQTVYAQIDTGSFELWVNPNCSNVQSADQRFCRAIGFYDPSSSSTADVTSQSARLRYGIGSADVTYVHDTISLPGSGSGSKAMKAVQFGVADTSVDEFSGILGLGAGNGINTEYPNFVDELAAQGVTATKAFSLALGSKAEEEGVIIFGGVDTAKFHGELAHLPIVPADDSPDGVARYWVKMKSISLTPPPPSSSGSTDDNNNKPVAFPQTSMTVFLDSGSTLTLLPPALVRQIASALGSTQTDESGFFVVDCALASQDGTIDFEFDGVTIRVPYAEMIRQVSTLPPHCYLGMMGSTQFALLGDTFLRSAYAVFDLTSNVVHLAPYANCGTNVKSITSTSSLSNLVGTCNDPSKPSSSPSPSQTPSASPSSTATQKA
With B1, in the assay on MAB01 heavy chain (pH 4.5, 37°C, overnight), the MAB01 degrading activity entry was “minimal antibody degrading activity”.

B2: pep3: T. reesei aspartic protease tre121133 expressed from Pichia (protein, listed as Trichoderma reesei)
chain: MEAILQAQAKFRLDRGLQKITAVRNKNYKRHGPKSYVYLLNRFGFEPTKPGPYFQQHRIHQRGLAHPDFKAAVGGRVTRQKVLAKKVKEDGTVDAGGSKTGEVDAEDQQNDSEYLCEVTIGTPGQKLMLDFDTGSSDLWVFSTELSKHLQENHAIFDPKKSSTFKPLKDQTWQISYGDGSSASGTCGSDTVTLGGLSIKNQTIELASKLAPQFAQGTGDGLLGLAWPQINTVQTDGRPTPANTPVANMIQQDDIPSDAQLFTAAFYSERDENAESFYTFGYIDQDLVSASGQEIAWTDVDNSQGFWMFPSTKTTINGKDISQEGNTAIADTGTTLALVSDEVCEALYKAIPGAKYDDNQQGYVFPINTDASSLPELKVSVGNTQFVIQPEDLAFAPADDSNWYGGVQSRGSNPFDILGDVFLKSVYAIFDQGNQRFGAVPKIQAKQNLQPPQ
For the molecule B2, the MAB01 degrading activity result in the assay on MAB01 heavy chain (pH 4.5, 37°C, overnight) is “higher”; in the assay with MAB01 heavy chain (setting [1]), “low MAB01 degrading activity”.

B3: slp6: T. reesei subtilisin protease overproduced in Pichia supernatant (protein, listed as Trichoderma reesei)
chain: MASLRRLALYLGALLPAVLAAPAVNYKLPEAVPNKFIVTLKDGASVDTDSHLTWVKDLHRRSLGKRSTAGVEKTYNIDSWNAYAGEFDEETVKQIKANPDVASVEPDYIMWLSDIVEDKRALTTQTGAPWGLGTVSHRTPGSTSYIYDTSAGSGTFAYVVDSGINIAHQQFGGRASLGYNAAGGDHVDTLGHGTHVSGTIGGSTYGVAKQASLISVKVFQGNSASTSVILDGYNWAVNDIVSRNRASKSAINMSLGGPASSTWATAINAAFNKGVLTIVAAGNGDALGNPQPVSSTSPANVPNAITVAALDINWRTASFTNYGAGVDVFAPGVNILSSWIGSNTATNTISGTSMATPHVVGLALYLQALEGLSTPTAVTNRIKALATTGRVTGSLNGSPNTLIFNGNSA
With B3, the “degradation of MAB01 heavy chain vs mock supernatant” value with MAB01 heavy chain (Pichia supernatant, overnight 37°C) is “light degradation”. Further, in the assay with rituximab heavy chain, the “degradation of rituximab heavy chain vs mock supernatant” value was “heavy degradation activity”.

B4: gap2: T. reesei glutamic protease tre106661 in Pichia supernatant (protein, listed as Trichoderma reesei)
chain: MDAIRARSAARRSNRFQAGSSKNVNGTADVESTNWAGAAITTSGVTEVSGTFTVPRPSVPAGGSSREEYCGAAWVGIDGYSDADLIQTGVLWCVEDGEYLYEAWYEYLPAALVEYSGISVTAGSVVTVTATKTGTNSGVTTLTSGGKTVSHTFSRQNSPLPGTSAEWIVEDFTSGSSLVPFADFGSVTFTGATAVVNGATVTAGGDSPVIIDLEDSRGDILTSTTVSGSTVTVEYE
For B4, the “proteolytic activity against heavy chain MAB01” value with MAB01 heavy chain (pH 4.0, 37°C, 20 hours) is on record as “maximal proteolytic activity”. In the assay with MAB01 heavy chain (setting [1]), the MAB01 degrading activity entry is listed as “low”.
